Data on three molecules can be found in patent US8697386B2, “Methods and compositions for modulating hepsin activation of macrophage-stimulating protein” (Genentech, Inc., priority 2009, dated 2014).

Entries after “also recorded” stand apart in the source; their conditions may differ.

One test has as its target T1, hepsin (Homo sapiens, UniProt P05981).
T1 construct: The extracellular domain of the human recombinant hepsin was expressed and purified as described; made in house
Nature of the test: In vitro activation of pro-MSP by recombinant hepsin (SDS-PAGE). It counts as biochemical. The settings on record: 25 μg/ml substrate, hepsin 1.25-10 nM, 37° C., SDS-PAGE reducing; mutant up to 24 hours. The protocol: Analysis of in vitro activation of pro-msp by hepsin using sds-page: Pro-MSP (25 μg/ml) was incubated with different concentrations of hepsin (1.25 nM, 2.5 nM, 5 nM and 10 nM) in a buffer containing 50 mM Tris-HCl pH 8.0, 150 mM NaCl, 0.05% Triton-X100 and 2 mM CaCl2 at 37° C. Aliquots of the reaction mixture at different time points were mixed 6×-SDS sample buffer and the samples were boiled for 5 minutes at 95° C. and separated by SDS-PAGE using a 4-20% gradient gel. Protein was visualized after staining with SimplyBlue Safe Stain (Invitrogen, Carlsbad, Calif.). Similar experiments were performed with the pro-MSP that was mutated to render it uncleavable at Arg483-Val484(pro-MSP-R483E) to assess if proteolytic cleavage site occurs at a different site apart from the expected Arg483-Val484 bond in pro-MSP.

A further test addresses T2, human Ron (Homo sapiens, UniProt Q04912).
T2 construct: the Ron (Sema IPT1)-IgG fusion protein was captured
T2 sequence (Q04912 25-683 limits assumed): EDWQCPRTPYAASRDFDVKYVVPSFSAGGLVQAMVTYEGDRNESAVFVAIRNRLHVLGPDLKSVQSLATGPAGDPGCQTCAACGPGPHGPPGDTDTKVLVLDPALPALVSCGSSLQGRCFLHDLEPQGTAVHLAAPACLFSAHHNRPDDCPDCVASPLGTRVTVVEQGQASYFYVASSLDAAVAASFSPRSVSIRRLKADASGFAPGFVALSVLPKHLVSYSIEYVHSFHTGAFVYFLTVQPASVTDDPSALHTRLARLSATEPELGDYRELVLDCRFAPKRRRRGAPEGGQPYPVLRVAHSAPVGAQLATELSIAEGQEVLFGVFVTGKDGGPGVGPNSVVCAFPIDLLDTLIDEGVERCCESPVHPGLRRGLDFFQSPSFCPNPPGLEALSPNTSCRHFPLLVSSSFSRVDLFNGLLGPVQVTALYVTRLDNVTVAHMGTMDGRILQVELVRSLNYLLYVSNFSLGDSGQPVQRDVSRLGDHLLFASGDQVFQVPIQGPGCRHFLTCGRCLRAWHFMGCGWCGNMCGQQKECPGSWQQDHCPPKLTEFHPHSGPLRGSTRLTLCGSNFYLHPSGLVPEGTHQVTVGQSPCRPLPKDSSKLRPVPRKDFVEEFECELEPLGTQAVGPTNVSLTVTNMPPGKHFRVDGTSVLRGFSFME
Put plainly: Binding to Ron by surface plasmon resonance (BIAcore). The following applies: SPR; for detectable binding to Ron: up to a concentration of 1 μM. As for the experimental part:
Binding of hepsin-activated pro-MSP to Ron by surface plasmon resonance and ELISA: To determine binding affinity of hepsin-activated MSP to human Ron, surface plasmon resonance measurements on a BIAcore™-3000 instrument (GE Health Care, NJ) were performed. Rabbit anti-human IgG were chemically immobilized (amine coupling) on CM5 biosensor chips and the Ron (Sema IPT1)-IgG fusion protein was captured to give approximately 250 response units (RU). For kinetics measurements, different concentration of either hepsin-activated MSP or a commercially available MSP (R&D systems) were injected in HBS-P buffer at 25° C. with a flow rate of 30 μl/min. Association rates (kon) and dissociation rates (koff) were obtained by using a simple one-to-one Langmuir binding model (BIA-Evaluation) and the equilibrium dissociation constants (KD) were calculated (koff/kon). For ELISA experiments, maxiSorp microtiter plates (Nunc, Roskilde, Denmark) were coated overnight at 4° C. with 2 μg/ml of rabbit anti-human IgG Fc specific antibody (Jackson ImmunoResearch Laboratory, West Grove, Pa.) in 50 mM sodium carbonate buffer, pH 9.6. After blocking with assay buffer (PBS pH 7.4, 0.5% BSA and 0.05% Tween-20, 15 PPM Proclin), 1 μg/ml Ron (Sema IPT1)-IgG fusion protein was added and plates were incubated for 1 hour with gentle shaking at room temperature. After washing with wash buffer (PBS, 0.05% polysorbate 20), His tagged MSP proteins were added for 1 hour. Bound MSP was detected using anti-His-HRP (Qiagen, Valencia, Calif.) followed by addition of TMB/H2O2 substrate (KPL, Gaithersburg, Md.). The reaction was stopped with 1M H3PO4 and the A450 was measured on a Molecular Devices (Sunnyvale, Calif.) SpectraMax Plus^384 microplate reader. The effective concentration to give half-maximal binding (EC50) was determined by a four parameter fit using Kaleidagraph (Synergy Software, Reading, Pa.).

A further test relates to Ron signaling pathway. Put plainly: Immunoblot for phosphorylated downstream kinases in A2780 cells overexpressing human Ron. It counts as cell-based. The settings on record: pro-MSP 10 and 50 ng/ml, 10 nM hepsin, 1 hour. As for the experimental part:
Immunoblot for the detection of phosphorylated kinases: A human ovarian carcinoma cell line (A2780) overexpressing human Ron was used to study the phosphorylation of Ron and other downstream kinase. Cells at a density of 2×10^5 cells/well were cultured in 12-well plate and serum-starved for 24 hours. The cells were then stimulated with either pro-MSP (10 and 50 ng/ml) alone or in presence of 10 nM Hepsin for 1 hour. Mature MSP from a commercial source and hepsin were used as controls. Samples were prepared by washing cells twice with cold PBS followed by addition of 200 ul lysis buffer. Samples were then analyzed by SDS/PAGE on 4-12% Tris-glycine gels (Invitrogen, Carlsbad, Calif.). Proteins were transferred onto nitrocellulose membranes and subsequently treated with anti-Ron antibody or anti-phospho-AKT antibody or anti-phospho-MAPK antibody or anti-phospho-S6 antibody, overnight at 4° C. After washing, membranes were incubated with IRDye800-conjugated goat anti-mouse IgG (Rockland, Gilbertsville, Pa.) and AlexaFluor 680 goat anti-rabbit IgG (Invitrogen) for 1 h. Proteins were detected with the Odyssey Infrared Imaging System (LI-COR Biosciences, Lincoln, Nebr.).
Background: A western blot detects proteins with antibodies after separation by electrophoresis.

The subject of another test is bone marrow macrophages. Put plainly: Inhibition of nitric oxide (NO) synthesis in bone marrow macrophages. The settings on record: MSP/pro-MSP 10 ng/ml, hepsin 1 nM, 24 hours, Griess reaction. It counts as cell-based, mouse. As for the experimental part:
Inhibition of NO synthesis by mature MSP: Bone marrow cells obtained from collected mouse femurs were pipetted to a single-cell suspension and then spun down. Red blood cells were lysed by incubation with erythrocyte lysis buffer for 5 minutes at room temperature. Cells were then suspended in macrophage differentiation medium (DMEM with glutamine containing 10% FBS, Pen/Strep and 50 ng/ml recombinant mCSF-1). Cells were then plated onto sterile 24-well non-tissue culture dishes. Medium was changed the next day and subsequently every 2 days. After 6 days in culture, the macrophages were mature and these mature cells were washed in serum-free DMEM and further incubated for 2 hours. Different reactions (total volume 300 μL) as indicated in the figure consisting of recombinant MSP (10 ng/ml), pro-MSP (10 ng/ml), hepsin (1 nM) and Fab25 (500 nM) were added to the respective wells and cultured for 24 hours at 37° C. in a tissue culture incubator. NO production was quantified using Griess reaction (Molecular Probes) according to manufacturer's recommendation.
In general terms: Griess reagent forms a coloured azo dye with nitrite.

T1 sequence (P05981 45-417 limits assumed): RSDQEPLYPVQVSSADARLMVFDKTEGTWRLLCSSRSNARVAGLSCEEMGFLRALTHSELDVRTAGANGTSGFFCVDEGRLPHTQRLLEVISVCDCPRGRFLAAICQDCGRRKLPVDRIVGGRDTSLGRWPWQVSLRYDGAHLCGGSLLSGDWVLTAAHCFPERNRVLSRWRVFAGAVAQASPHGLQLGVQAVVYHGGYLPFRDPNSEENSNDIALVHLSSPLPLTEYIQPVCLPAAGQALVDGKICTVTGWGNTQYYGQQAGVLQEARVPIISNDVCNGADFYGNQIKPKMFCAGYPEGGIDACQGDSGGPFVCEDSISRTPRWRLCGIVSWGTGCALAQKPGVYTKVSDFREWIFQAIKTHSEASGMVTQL

B1: pro-MSP-R483E: pro-MSP mutated to render it uncleavable at Arg483-Val484 (protein)
chain: QRSPLNDFQVLRGTELQHLLHAVVPGPWQEDVADAEECAGRCGPLMDCRAFHYNVSSHGCQLLPWTQHSPHTRLRRSGRCDLFQKKDYVRTCIMNNGVGYRGTMATTVGGLPCQAWSHKFPNDHKYTPTLRNGLEENFCRNPDGDPGGPWCYTTDPAVRFQSCGIKSCREAACVWCNGEEYRGAVDRTESGRECQRWDLQHPHQHPFEPGKFLDQGLDDNYCRNPDGSERPWCYTTDPQIEREFCDLPRCGSEAQPRQEATTVSCFRGKGEGYRGTANTTTAGVPCQRWDAQIPHQHRFTPEKYACKDLRENFCRNPDGSEAPWCFTLRPGMRAAFCYQIRRCTDDVRPQDCYHGAGEQYRGTVSKTRKGVQCQRWSAETPHKPQFTFTSEPHAQLEENFCRNPDGDSHGPWCYTMDPRTPFDYCALRRCADDQPPSILDPPDQVQFEKCGKRVDRLDQRRSKLEVVGGHPGNSPWTVSLRNRQGQHFCGGSLVKEQWILTARQCFSSCHMPLTGYEVWLGTLFQNPQHGEPSLQRVPVAKMVCGPSGSQLVLLKLERSVTLNQRVALICLPPEWYVVPPGTKCEIAGWGETKGTGNDTVLNVALLNVISNQECNIKHRGRVRESEMCTEGLLAPVGACEGDYGGPLACFTHNAWVLEGIIIPNRVCARSRWPAVFTRVSVFVDWIHKVMRLG
With B1, in the test with hepsin, the “proteolytic cleavage/activation by hepsin” value was “did not cleave”. In addition, the “detectable binding to Ron” value with human Ron is given as “Neither pro-MSP nor the cleavage site mutant (pro-MSP-R483E) had any detectable binding”.

B2: commercially available MSP: recombinant active form of human MSP (R&D Systems) (protein)
chain 1: QRSPLNDFQVLRGTELQHLLHAVVPGPWQEDVADAEECAGRCGPLMDCRAFHYNVSSHGCQLLPWTQHSPHTRLRRSGRCDLFQKKDYVRTCIMNNGVGYRGTMATTVGGLPCQAWSHKFPNDHKYTPTLRNGLEENFCRNPDGDPGGPWCYTTDPAVRFQSCGIKSCREAACVWCNGEEYRGAVDRTESGRECQRWDLQHPHQHPFEPGKFLDQGLDDNYCRNPDGSERPWCYTTDPQIEREFCDLPRCGSEAQPRQEATTVSCFRGKGEGYRGTANTTTAGVPCQRWDAQIPHQHRFTPEKYACKDLRENFCRNPDGSEAPWCFTLRPGMRAAFCYQIRRCTDDVRPQDCYHGAGEQYRGTVSKTRKGVQCQRWSAETPHKPQFTFTSEPHAQLEENFCRNPDGDSHGPWCYTMDPRTPFDYCALRRCADDQPPSILDPPDQVQFEKCGKRVDRLDQRRSKLR
chain 2: VVGGHPGNSPWTVSLRNRQGQHFCGGSLVKEQWILTARQCFSSCHMPLTGYEVWLGTLFQNPQHGEPSLQRVPVAKMVCGPSGSQLVLLKLERSVTLNQRVALICLPPEWYVVPPGTKCEIAGWGETKGTGNDTVLNVALLNVISNQECNIKHRGRVRESEMCTEGLLAPVGACEGDYGGPLACFTHNCWVLEGIIIPNRVCARSRWPAVFTRVSVFVDWIHKVMRLG
On to B2, for which the Kd – broadly, the concentration at which binding is half-saturated – in the test with human Ron (Ron-Fc captured on CM5 chip, 1:1 binding model, 25° C., read-out: KD, binding affinity to Ron) came to 4.4 nM.

B3: pro-MSP: inactive single-chain precursor of MSP; recombinant human MSP with C672A mutation expressed in Chinese Hamster Ovary cells (protein, listed as Homo sapiens)
chain: MGWLPLLLLLTQCLGVPGQRSPLNDFQVLRGTELQHLLHAVVPGPWQEDVADAEECAGRCGPLMDCRAFHYNVSSHGCQLLPWTQHSPHTRLRRSGRCDLFQKKDYVRTCIMNNGVGYRGTMATTVGGLPCQAWSHKFPNDHKYTPTLRNGLEENFCRNPDGDPGGPWCYTTDPAVRFQSCGIKSCREAACVWCNGEEYRGAVDRTESGRECQRWDLQHPHQHPFEPGKFLDQGLDDNYCRNPDGSERPWCYTTDPQIEREFCDLPRCGSEAQPRQEATTVSCFRGKGEGYRGTANTTTAGVPCQRWDAQIPHQHRFTPEKYACKDLRENFCRNPDGSEAPWCFTLRPGMRAAFCYQIRRCTDDVRPQDCYHGAGEQYRGTVSKTRKGVQCQRWSAETPHKPQFTFTSEPHAQLEENFCRNPDGDSHGPWCYTMDPRTPFDYCALRRCADDQPPSILDPPDQVQFEKCGKRVDRLDQRRSKLRVVGGHPGNSPWTVSLRNRQGQHFCGGSLVKEQWILTARQCFSSCHMPLTGYEVWLGTLFQNPQHGEPSLQRVPVAKMVCGPSGSQLVLLKLERSVTLNQRVALICLPPEWYVVPPGTKCEIAGWGETKGTGNDTVLNVALLNVISNQECNIKHRGRVRESEMCTEGLLAPVGACEGDYGGPLACFTHNAWVLEGIIIPNRVCARSRWPAVFTRVSVFVDWIHKVMRLG
With B3, the “proteolytic cleavage/activation by hepsin” value with hepsin is “activated pro-MSP in a dose-dependent and time dependent manner”. Also, the “phosphorylation of MAP kinase and S6 kinase (activation of Ron signaling pathway)” value with Ron signaling pathway was “Neither hepsin nor pro-MSP alone was effective”. For the same molecule, the “effect on NO production in response to LPS” value in the test on bone marrow macrophages was “did not inhibit”. For the same molecule, the “detectable binding to Ron” value in the test with human Ron is reported as “Neither pro-MSP nor the cleavage site mutant (pro-MSP-R483E) had any detectable binding; also recorded: No detectable binding”.
